In EP2226633A1 (Charité - Universitätsmedizin Berlin, dated 2010):

B1: heterodimeric LIF receptor (murine gp130 and LIFRα) on transiently transfected Ba/F3 cells (receptor)
chain 1: QLLEPCGYIYPEFPVVQRGSNFTAICVLKEACLQHYYVNASYIVWKTNHAAVPREQVTVINRTTSSVTFTDVVLPSVQLTCNILSFGQIEQNVYGVTMLSGFPPDKPTNLTCIVNEGKNMLCQWDPGRETYLETNYTLKSEWATEKFPDCQSKHGTSCMVSYMPTYYVNIEVWVEAENALGKVSSESINFDPVDKVKPTPPYNLSVTNSEELSSILKLSWVSSGLGGLLDLKSDIQYRTKDASTWIQVPLEDTMSPRTSFTVQDLKPFTEYVFRIRSIKDSGKGYWSDWSEEASGTTYEDRPSRPPSFWYKTNPSHGQEYRSVRLIWKALPLSEANGKILDYEVILTQSKSVSQTYTVTGTELTVNLTNDRYVASLAARNKVGKSAAAVLTIPSPHVTAAYSVVNLKAFPKDNLLWVEWTPPPKPVSKYILEWCVLSENAPCVEDWQQEDATVNRTHLRGRLLESKCYQITVTPVFATGPGGSESLKAYLKQAAPARGPTVRTKKVGKNEAVLAWDQIPVDDQNGFIRNYSISYRTSVGKEMVVHVDSSHTEYTLSSLSSDTLYMVRMAAYTDEGGKDGPEFTFTTPKFAQGEIEAIVVPVCLAFLLTTLLGVLFCFNKRDLIKKHIWPNVPDPSKSHIAQWSPHTPPRHNFNSKDQMYSDGNFTDVSVVEIEANNKKPCPDDLKSVDLFKKEKVSTEGHSSGIGGSSCMSSSRPSISSNEENESAQSTASTVQYSTVVHSGYRHQVPSVQVFSRSESTQPLLDSEERPEDLQLVDSVDGGDEILPRQPYFKQNCSQPEACPEISHFERSNQVLSGNEEDFVRLKQQQVSDHISQPYGSEQRRLFQEGSTADALGTGADGQMERFESVGMETTIDEEIPKSYLPQTVRQGGYMPQ
chain 2: LKRGVQDLKCTTNNMRVWDCTWPAPLGVSPGTVKDICIKDRFHSCHPLETTNVKIPALSPGDHEVTINYLNGFQSKFTLNEKDVSLIPETPEILDLSADFFTSSLLLKWNDRGSALPHPSNATWEIKVLQNPRTEPVALVLLNTMLSGKDTVQHWNWTSDLPLQCATHSVSIRWHIDSPHFSGYKEWSDWSPLKNISWIRNTETNVFPQDKVVLAGSNMTICCMSPTKVLSGQIGNTLRPLIHLYGQTVAIHILNIPVSENSGTNIIFITDDDVYGTVVFAGYPPDVPQKLSCETHDLKEIICSWNPGRITGLVGPRNTEYTLFESISGKSAVFHRIEGLTNETYRLGVQMHPGQEIHNFTLTGRNPLGQAQSAVVINVTERVAPHDPTSLKVKDINSTVVTFSWYLPGNFTKINLLCQIEICKANSKKEVRNATIRGAEDSTYHVAVDKLNPYTAYTFRVRCSSKTFWKWSRWSDEKRHLTTEATPSKGPDTWREWSSDGKNLIVYWKPLPINEANGKILSYNVSCSLNEETQSVLEIFDPQHRAEIQLSKNDYIISVVARNSAGSSPPSKIASMEIPNDDITVEQAVGLGNRIFLTWRHDPNMTCDYVIKWCNSSRSEPCLLDWRKVPSNSTETVIESDQFQPGVRYNFYLYGCTNQGYQLLRSIIGYVEELAPIVAPNFTVEDTSADSILVKWDDIPVEELRGFLRGYLFYFQKGERDTPKTRSLEPHHSDIKLKNITDISQKTLRIADLQGKTSYHLVLRAYTHGGLGPEKSMFVVTKENSVGLIIAILIPVAVAVIVGVVTSILCYRKREWIKETFYPDIPNPENCKALQFQKSVCEGSNALKTLEMNPCTPNNVEVLESRSIVPKIEDTEIISPVAERPGERSEVDPENHVVVSYCPPIIEEEITNPAADEVGGASQVVYIDVQSMYQPQAKAEEEQDVDPVVVAGYKPQMRLPISPAVEDTAAEDEEGKTAGYRPQANVNTWNLVSPDSPRSTDSNNEVVSFGSPCSINSRQFLIPPKDEDSPKSNGGGWSFTNFFQNKPND
notes: whole, on cells; Also used here for the endogenous LIFR of murine M1 cells in the proliferation assay; also called classical LIFR; LIFRα/gp130
B2: GST fusion protein of mature murine EPO, expressed in E. coli (ligand, mouse, UniProt P07321 27-192, looked up)
chain: APPRLICDSRVLERYILEAKEAENVTMGCAEGPRLSENITVPDTKVNFYAWKRMEVEEQAIEVWQGLSLLSEAILQAQALLANSSQPPETLQLHIDKAISGLRSLTSLLRVLGAQKELMSPPDTTPPAPLRTLTVDTFCKLFRVYANFLRGKLKLYTGEVCRRGDR
notes: mature; also called GST-matmEPO; matmE; not shown: N-terminal GST tag from pGEX-6P-1

Key:
[1] = molecular target: iodinated murine LIF (125I-mLIF) (mouse, UniProt P09056 24-203); test: radioligand binding on transfected Ba/F3 cells
murine LIF, unlabelled = murine LIF, unlabelled (mouse, UniProt P09056 24-203); test: displacement of 125I-mLIF from Ba/F3 cells transfected with LIFRα and gp130
[2] = molecular target: T1, human LIFRα from HEK 293 cell extracts (human, UniProt P42702 45-1097); test: GST pull-down, HEK cell extracts as prey, anti-LIFR Western blot
T1 construct: Endogenous protein from crude cell extract; also called hLIFRα
T1 sequence (looked up): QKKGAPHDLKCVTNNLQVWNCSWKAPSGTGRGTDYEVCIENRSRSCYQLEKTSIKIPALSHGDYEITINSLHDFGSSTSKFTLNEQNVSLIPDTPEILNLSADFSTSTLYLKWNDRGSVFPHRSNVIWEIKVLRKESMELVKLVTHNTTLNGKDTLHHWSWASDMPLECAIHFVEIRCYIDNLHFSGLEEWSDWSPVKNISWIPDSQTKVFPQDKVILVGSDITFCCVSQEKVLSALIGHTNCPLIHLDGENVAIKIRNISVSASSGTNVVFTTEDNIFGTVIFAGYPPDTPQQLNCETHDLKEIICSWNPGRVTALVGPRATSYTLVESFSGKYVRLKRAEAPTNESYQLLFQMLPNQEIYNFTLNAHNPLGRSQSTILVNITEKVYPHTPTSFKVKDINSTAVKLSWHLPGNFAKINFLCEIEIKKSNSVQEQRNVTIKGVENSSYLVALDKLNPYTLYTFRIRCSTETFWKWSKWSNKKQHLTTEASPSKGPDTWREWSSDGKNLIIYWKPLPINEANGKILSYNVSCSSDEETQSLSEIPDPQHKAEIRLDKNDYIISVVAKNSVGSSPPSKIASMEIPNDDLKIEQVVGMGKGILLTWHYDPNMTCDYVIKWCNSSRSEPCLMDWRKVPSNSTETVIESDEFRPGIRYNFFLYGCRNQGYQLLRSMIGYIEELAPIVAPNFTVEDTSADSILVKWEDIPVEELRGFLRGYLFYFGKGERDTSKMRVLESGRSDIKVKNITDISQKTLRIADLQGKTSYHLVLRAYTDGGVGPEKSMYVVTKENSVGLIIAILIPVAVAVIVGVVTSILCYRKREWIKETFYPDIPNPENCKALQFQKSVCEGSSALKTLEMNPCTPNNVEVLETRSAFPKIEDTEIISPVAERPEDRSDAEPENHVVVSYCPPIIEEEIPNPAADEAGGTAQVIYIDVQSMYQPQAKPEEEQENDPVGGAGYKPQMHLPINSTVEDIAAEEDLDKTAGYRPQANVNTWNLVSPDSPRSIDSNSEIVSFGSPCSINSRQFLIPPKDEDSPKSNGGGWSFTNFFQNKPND

[3] = molecular target: T2, V5-His-tagged murine soluble LIFR, secreted by HEK 293 cells (mouse, UniProt P42703-2 44-719, limits assumed); test: GST pull-down, HEK supernatant with msLIFR as prey, anti-V5 Western blot
T2 construct: Used as culture supernatant; also called msLIFR; murine soluble LIFRα; not shown: V5-His tag
T2 sequence (looked up): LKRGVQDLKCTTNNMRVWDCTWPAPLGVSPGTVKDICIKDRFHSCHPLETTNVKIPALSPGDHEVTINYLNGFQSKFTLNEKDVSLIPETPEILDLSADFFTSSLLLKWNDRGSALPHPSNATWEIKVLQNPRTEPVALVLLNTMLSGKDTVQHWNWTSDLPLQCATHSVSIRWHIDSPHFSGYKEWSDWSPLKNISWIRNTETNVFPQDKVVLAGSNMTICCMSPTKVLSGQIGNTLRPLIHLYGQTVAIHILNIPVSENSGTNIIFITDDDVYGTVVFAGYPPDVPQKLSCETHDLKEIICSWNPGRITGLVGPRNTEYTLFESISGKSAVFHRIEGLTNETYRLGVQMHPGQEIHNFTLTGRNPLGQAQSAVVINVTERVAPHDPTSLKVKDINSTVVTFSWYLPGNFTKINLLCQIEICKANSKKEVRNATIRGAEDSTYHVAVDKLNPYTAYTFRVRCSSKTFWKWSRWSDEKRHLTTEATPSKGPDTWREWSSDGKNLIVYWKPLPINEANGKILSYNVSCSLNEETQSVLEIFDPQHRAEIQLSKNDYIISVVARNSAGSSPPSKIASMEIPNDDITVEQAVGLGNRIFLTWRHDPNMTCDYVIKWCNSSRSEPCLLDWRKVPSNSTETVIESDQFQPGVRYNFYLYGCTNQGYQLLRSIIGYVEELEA

Binder	binding result [1]	binding result (murine LIF, unlabelled)	binding result [2]	binding result [3]
B1	binds	binds		
B2			no binding	no binding
